Measured values: patent US10143747B2, “Breast cancer therapeutics” (IMBA—INSTITUT FÜR MOLEKULARE BIOTECHNOLOGIE GMBH, priority 2010, dated 2018)

B1: RANKL: recombinant RANKL protein, ligand of RANK, used as stimulus (1 μg/ml or 1 μg i.p.) (protein, UniProt O35235 139-316, looked up)
Tumor necrosis factor ligand …: FSGAPAMMEGSWLDVAQRGKPEAQPFAHLTINAASIPSGSHKVTLSSWYHDRGWAKISNMTLSNGKLRVNQDGFYYLYANICFRHHETSGSVPTDYLQLMVYVVKTSIKIPSSHNLMKGGSTKNWSGNSEFHFYSINVGGFFKLRAGEEISIQVSNPSLLDPDQDATYFGAFKVQDID

Experiments:
NFκB pathway / CyclinD1 = experiment: NFκB pathway activation and CyclinD1 expression in mammary epithelial cells after MPA in vivo; set-up: species or system mouse; conditions: three day MPA treatment, control females
Excerpt: a, Activation of the NFκB pathway and CyclinD1 expression by MPA. Nulliparous RANK^Δmam and littermate control females were s.c. implanted with slow-release MPA pellets or treated with sham surgery. a, In situ immunostaining to detect phosphorylated (P) IκBα in mammary epithelial cells of RANK^Δmam and littermate control females after 3 d MPA treatment. b, Western blot analysis of CyclinD1 and RANKL in isolated mammary epithelial cells from RANK^Δmam and littermate control females after 3 d MPA treatment. Recombinant, murine sRANKL protein is shown for molecular size comparison. β-actin is shown as a loading control.
The human epithelial breast tumor cell line SKBR3 and primary non-transformed mouse mammary epithelial cells were left untreated or stimulated with recombinant murine RANKL^ref. 9. Adenocarcinomas were isolated from control and mutant mice and total protein lysates prepared. Western blotting was carried out using standard protocols. Briefly, blots were blocked with 5% BSA in 1×TBS 0.1% Tween-20 (TBST) for 1 hour and incubated with primary antibody overnight at 4° C. (diluted in TBST according to the manufactures protocol). […]

[1] = system: SKBR3 breast cancer cells; experiment: Growth curve of SKBR3 cells, live cell counting; format: cell-based, human; conditions: RANKL 1 μg/ml, 3 days
Method: a, Western blotting for phosphorylated (P) p65 NFκB, total p65 NFκB, phosphorylated (P) IκBα, total IκBα, phosphorylated (P) ERK1/2, total ERK1/2, phosphorylated (P) p38-MAPK, and p38-MAPK in human SKBR3 breast cancer cells in response to RANKL stimulation (1 μg/ml). Data are representative of 3 experiments. b, Growth curve of SKBR3 breast cancer cells cultured in normal growth medium (control, DMEM supplemented with 10% FCS) or in the presence of RANKL (1 μg/ml). Cell numbers were determined by counting live cells (trypan blue-exclusion) over 3 days. c, Onset of palpable mammary tumors in NFATc1^Δmam (n=10) and age matched littermate control (n=16) females treated with MPA pellets and DMBA. Data are shown as percentage of tumor free mice after the last DMBA challenge. No significant difference was found. d, Quantification of NFATc1 mRNA expression in purified mammary epithelial cells (MECs) and MPA-driven mammary tumors from NFATc1^Δmam and littermate control females. mRNA was determined by qRT-PCR. Data are shown as fold change compared to control (+/−sem). n=5 Per group. *P<0.05 (Student's t-test).

[2] = system: primary mouse mammary gland epithelial cells (MECs); experiment: Western blotting of RANKL-stimulated primary mouse mammary gland epithelial cells; format: cell-based; conditions: RANKL 1 μg/ml
Method: a, Western blotting for phosphorylated (P) IKKα, total IKKα, phosphorylated (P) p65 NFκB, total p65 NFκB, phosphorylated (P) IκBα, and total IκBα in isolated primary mouse mammary gland epithelial cells (MECs) in response to RANKL stimulation (1 μg/ml). β-actin is shown as loading control. b, Western blotting for IKKα, IKKβ, IKKγ, phosphorylated (P) p65 NFκB, total p65 NFκB, phosphorylated (P) IκBα, and total IκBα in pooled late stage mammary adenocarconimas (n=4 for each lane) that developed in control, RANK^Δmam and IKKΔ^Δmam females. β-actin is shown as loading control c, Expression of RANK, CyclinD1, and p21 mRNA in late stage mammary adenocacinomas that developed in control, RANK^Δmam, and IKKα^Δmam females. Expression was determined by qRT-PCR. Data are mean values+/−sem. n=4 per group. d, Soft-Agar Colony Formation Assay. Growth of human SKBR3 breast cancer cells in soft agar in response to stimulation with RANKL (1 μg/ml) or EGF (100 ng/ml). Anchorage-independent, macroscopic colonies formed after 18 days in culture with RANKL, which was prevented by the decoy receptor OPG (1 μg/ml). […] Apoptosis was detected by immunostaining for active Caspase 3. f, Apoptotic nuclei of epithelial cells (arrows) are shown for representative mammary gland sections. Magnifications×40. g, Quantification of mammary epithelial apoptosis. A minimum of 5000 nuclei was counted for each mouse. […]

Row | Molecule | CyclinD1 protein expression in mammary epithelial cells (NFκB pathway / CyclinD1) | nuclear phosphorylated IκBα in mammary epithelial cells (NFκB pathway / CyclinD1) | proliferation of SKBR3 cells [1] | p65 NFκB and IκBα phosphorylation [2] | phosphorylation of p38-MAPKs and ERK [2]
1 | CC(=O)O[C@]1(C(C)=O)CC[C@H]2[C@@H]3C[C@H](C)C4=CC(=O)CC[C@]4(C)[C@H]3CC[C@@]21C [MPA, medroxyprogesterone acetate] | induction of CyclinD1 protein expression | nuclear accumulation of phosphorylated IκBα | – | – | –
2 | B1 | – | – | induced NFκB, p38-MAPKs and ERK activation and proliferation | resulted in p65 NFκB and IκBα phosphorylation | triggered phosphorylation of p38-MAPKs and ERK
